Assay results reported in patent US20210101970A1 (Pfizer, published 2021).

Columns and labels:
[1] = molecular target: T1, human CXCR5 (human, UniProt P32302 1-372); assay: cell-based or functional assay
T1 sequence: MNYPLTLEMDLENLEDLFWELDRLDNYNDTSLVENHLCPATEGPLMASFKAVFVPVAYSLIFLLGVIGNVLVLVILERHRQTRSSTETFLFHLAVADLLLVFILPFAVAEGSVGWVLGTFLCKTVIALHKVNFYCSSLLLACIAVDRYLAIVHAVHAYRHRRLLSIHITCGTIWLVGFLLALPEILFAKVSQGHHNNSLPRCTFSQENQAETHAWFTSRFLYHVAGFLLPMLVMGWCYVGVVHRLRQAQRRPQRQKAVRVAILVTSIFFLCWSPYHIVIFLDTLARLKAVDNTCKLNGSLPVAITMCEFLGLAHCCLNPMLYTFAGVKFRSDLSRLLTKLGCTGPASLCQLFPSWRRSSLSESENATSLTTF

[2] = molecular target: T2, cynomolgus monkey CXCR5 (cynomolgus monkey, UniProt P32302 1-372 (human entry)); assay: cell-based or functional assay
T2 chain: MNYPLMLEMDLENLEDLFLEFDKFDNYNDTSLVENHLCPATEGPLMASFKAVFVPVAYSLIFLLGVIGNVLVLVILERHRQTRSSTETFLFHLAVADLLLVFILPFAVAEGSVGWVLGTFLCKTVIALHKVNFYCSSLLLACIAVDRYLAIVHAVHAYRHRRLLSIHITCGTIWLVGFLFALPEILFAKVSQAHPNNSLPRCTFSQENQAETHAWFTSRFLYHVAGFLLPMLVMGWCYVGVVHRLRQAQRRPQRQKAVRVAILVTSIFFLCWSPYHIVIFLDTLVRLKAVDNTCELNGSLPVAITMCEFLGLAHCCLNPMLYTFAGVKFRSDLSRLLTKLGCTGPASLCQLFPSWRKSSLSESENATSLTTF

[3] = molecular target: T1, human CXCR5; assay: cell-based or functional assay; remark: listed apart in the source
[4] = molecular target: T1, human CXCR5; assay: flow cytometry, human PBMC B cells
[5] = molecular target: T1, human CXCR5; assay: flow cytometry, human PBMC B cells; remark: listed apart in the source
Experimental: (§1) The apparent affinity for cell surface CXCR5 of chimeric and humanized CXCR5 fucosylated and afucosylated antibodies was assessed. More specifically, to determine the apparent affinity of chimeric and humanized CXCR5 antibodies to CXCR5-expressing cells, cell binding experiments were performed on human and cynomolgus monkey peripheral blood mononuclear cells (PBMCs) and human tonsillar mononuclear cells (TMCs). The apparent affinity of CXCR5 mab binding to CXCR5+ cells (B cells, bona fide Tfh cells, and circulating Tfh-like cells) was calculated as the EC50 of equilibrium binding titration curves in which the geometric mean fluorescence intensity (gMFI) of the antigen binding population was quantified by flow cytometry.
(§2) Following isolation, PBMCs were plated at a density of 1.0×10⁵ cells per well and CD4+ TMCs were plated at a density of 2.0×10⁵ cells per well in isolation buffer (PBS containing 1% FBS and 1 mM EDTA) in 96 well U-bottom plates. The plates were then centrifuged at 1500 rpm for 5 minutes at room temperature. PBMCs and CD4+ TMCs were resuspended in Fluorescence-activated cell sorting (FACS) buffer (PBS containing 1% FBS) containing human crystallized fragment Fc block (2 μL per well; Biolegend) and 4-fold serial dilutions of the antibodies (11-point dilution series, beginning at 5000 ng/mL for PBMCs and 312.5 ng/mL for CD4+ TMCs) and incubated on ice for 2 hours. PBMCs and CD4+ TMCs were then washed with FACS buffer 3 times and resuspended in 50-100 μL of FACs buffer containing fluorescent-conjugated antibodies for staining lymphocyte subsets and a fluorescent-conjugated secondary antibody against human Ig to detect CXCR5 monoclonal antibodies (mAbs). After incubation for 30 minutes at 4° C., PBMCs and CD4+ TMCs were washed with FACS buffer 2 times and resuspended in 125 μL of 0.5% paraformaldehyde (PFA) in PBS. Plates were stored at 4° C. until analysis by flow cytometry (BD LSRFortessa™ Cell Analyzer, BD Biosciences, Franklin Lakes, N.J.).
(§3) The cell binding titration curves were generated by plotting the gMFI of the antigen binding population against the log of CXCR5 antibody concentration. EC₅₀ values were determined using GraphPad Prism® (version 6.0, GraphPad Software, Inc, San Diego, Calif.) nonlinear-regression curve fits and a sigmoidal log of agonist dose-response model, according to the following equation

[6] = molecular target: T1, human CXCR5; assay: flow cytometry, human tonsil Tfh cells
Experimental: Following centrifugation, red blood cell lysis was performed on the pellet using an ammonium chloride lysis buffer. Platelets were removed using a low speed centrifugation (200×g) for 10 minutes in Phosphate-Buffered Saline (PBS)/2% FBS/2 mM Ethylenediaminetetraacetic acid (EDTA). CD4+ T cells were purified out of the TMC mixture using an EasySep™ Human CD4+ T Cell Enrichment Kit, according to the manufacturer's instructions ([…] Technologies, Vancouver, BC, Canada).
as §2, §3

[7] = molecular target: T2, cynomolgus monkey CXCR5; assay: flow cytometry, cynomolgus PBMC B cells
Experimental: as §1, §2, §3

[8] = molecular target: T1, human CXCR5; assay: flow cytometry, human PBMC Tfh-like cells
Experimental: as §1
(§4) Following isolation, PBMCs were plated at a density of 1.0×10⁵ cells per well and CD4+ TMCs were plated at a density of 2.0×10⁵ cells per well in isolation buffer (PBS containing 1% FBS and 1 mM EDTA) in 96 well U-bottom plates. The plates were then centrifuged at 1500 rpm for 5 minutes at room temperature. PBMCs and CD4+ TMCs were resuspended in Fluorescence-activated cell sorting (FACS) buffer (PBS containing 1% FBS) containing human crystallized fragment Fc block (2 μL per well; Biolegend) and 4-fold serial dilutions of the antibodies (11-point dilution series, beginning at 5000 ng/mL for PBMCs and 312.5 ng/mL for CD4+ TMCs) and incubated on ice for 2 hours. […]

[9] = molecular target: T2, cynomolgus monkey CXCR5; assay: flow cytometry, cynomolgus PBMC Tfh-like cells
Experimental: as §1, §4

[10] = molecular target: T1, human CXCR5; assay: flow cytometry, B cells from human PBMCs (FIG. 5); fucosylated
[11] = molecular target: T3, mouse CXCR5 (mouse, UniProt Q04683 1-374); assay: flow cytometry on cells expressing mouse CXCR5
T3 construct: also called mCXCR5
T3 sequence: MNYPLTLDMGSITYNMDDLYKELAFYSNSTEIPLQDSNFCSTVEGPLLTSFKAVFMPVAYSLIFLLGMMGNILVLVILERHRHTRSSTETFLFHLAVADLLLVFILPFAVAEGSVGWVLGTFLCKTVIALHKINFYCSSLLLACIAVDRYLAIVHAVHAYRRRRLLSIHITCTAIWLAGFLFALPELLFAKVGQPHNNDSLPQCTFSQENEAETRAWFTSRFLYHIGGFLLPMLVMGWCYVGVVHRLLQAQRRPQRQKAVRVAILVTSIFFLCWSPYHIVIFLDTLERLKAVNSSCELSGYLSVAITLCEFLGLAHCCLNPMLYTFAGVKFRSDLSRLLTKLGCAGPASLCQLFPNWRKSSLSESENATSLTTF

[12] = molecular target: T1, human CXCR5; assay: flow cytometry, B cells from human PBMCs (FIG. 5); comparator 11A7
[13] = molecular target: T4, XC280 (human, UniProt P32302 2-372); assay: flow cytometry on HEK-293T cells transiently expressing the FLAG-tagged mutein; ratio of gMFI of the antibody to gMFI of anti-FLAG PE
T4 construct: also called hCXCR5 W19K
T4 sequence: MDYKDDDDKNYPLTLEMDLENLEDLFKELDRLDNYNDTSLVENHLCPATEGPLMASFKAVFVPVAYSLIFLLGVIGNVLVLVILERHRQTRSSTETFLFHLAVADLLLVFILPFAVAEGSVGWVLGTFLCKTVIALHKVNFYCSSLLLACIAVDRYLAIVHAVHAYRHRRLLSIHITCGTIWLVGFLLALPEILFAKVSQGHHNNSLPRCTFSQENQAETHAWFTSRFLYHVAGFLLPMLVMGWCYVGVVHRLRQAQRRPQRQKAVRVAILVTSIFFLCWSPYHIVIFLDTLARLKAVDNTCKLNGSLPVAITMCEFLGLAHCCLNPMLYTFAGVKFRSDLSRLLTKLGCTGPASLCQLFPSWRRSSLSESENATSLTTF
Experimental: The cells were analyzed by flow cytometry using an Accuri (BD Biosciences Franklin Lakes, N.J.). The geometric mean fluorescence intensity (gMFI) was determined and the ratio for the gMFI of each CXCR5 antibody and anti-flag was calculated.

[14] = molecular target: T1, human CXCR5; assay: cell-based or functional assay; remark: listed apart in the source
[15] = molecular target: T1, human CXCR5; assay: flow cytometry on Raji cells, gMFI titration
Experimental: The apparent affinity of antibody binding to Raji cells was calculated as the EC₅₀ of equilibrium binding titration curves in which the geometric mean fluorescence intensity (gMFI) of the antigen binding population was quantified by flow cytometry and the results are shown in Table 2.

[16] = molecular target: T1, human CXCR5; assay: FACS on cells expressing the CXCR5 construct
[17] = molecular target: T3, mouse CXCR5; assay: FACS on cells expressing the CXCR5 construct
[18] = molecular target: T5, XC251; assay: FACS on cells expressing the CXCR5 construct
T5 construct: whole, on cells; also called hCXCR5-mL3

[19] = molecular target: T6, XC252; assay: FACS on cells expressing the CXCR5 construct
T6 construct: whole, on cells; also called hCXCR5-mL2

[20] = molecular target: T7, XC253; assay: FACS on cells expressing the CXCR5 construct
T7 construct: whole, on cells; also called hCXCR5-mN

[21] = molecular target: T8, XC254; assay: FACS on cells expressing the CXCR5 construct
T8 construct: whole, on cells; also called hCXCR5-mL2-mL3

[22] = molecular target: T9, XC255; assay: FACS on cells expressing the CXCR5 construct
T9 construct: whole, on cells; also called hCXCR5-mN-mL3

[23] = molecular target: T10, XC256; assay: FACS on cells expressing the CXCR5 construct
T10 construct: whole, on cells; also called hCXCR5-mN-mL2

B1: Humanized 11G2 154/155 (antibody, human IgG1, kappa, V domains shown)
VH: EVQLVESGGGLVQPGGSLRLSCAASGFTFTDFYMSWVRQAPGKGLEWVGFIRNKANGYTTEYSASVKGRFTISRDNAKNSLYLQMNSLRAEDTAVYYCARVYGSTLHYWGQGTLVTVSS
VL: DIQMTQSPSSLSASVGDRVTITCRASESVEYHGTSLMHWYQQKPGKAPKLLIYAASNVESGVPSRFSGSGSGTDFTLTISSLQPEDFATYYCQQSRKVPWTFGQGTKVEIKR
notes: fucosylated human IgG1/kappa; also called h11G2 VL XC154/VH XC155
- ADCC Activity Average EC50, Human B Cells [1]: 254 pM
- ADCC Activity Average EC50, Human Tfh Cells [1]: 0.77 pM
- ADCC Activity Average EC50, Human Tfh-like Cells [1]: 7.98 pM
- ADCC Activity Average EC50, NHP B Cells [2]: 39.1 pM
- % Inhibition CXCL13 [3]: 121%
- EC50, stimulation of CXCL13-inhibited cAMP production [3]: 753 pM
- fold greater affinity than 2C9 [4]: ≥ 10 fold
- fold greater affinity than 11A7 [4]: ≥ 100 fold
- fold higher affinity than 2C9 [4]: ~10 fold
- fold higher affinity than 11A7 [4]: ~100 fold
- EC50 [5]: 7.08 pM
- EC50 [6]: 8.25 pM
- EC50 [7]: 4.13 pM
- EC50 [8]: 5.92 pM
- EC50 [9]: 5.65 pM
- EC50 [10]: 9.63 pM

B2: 11A7 (reference antibody) (antibody, human IgG1, lambda, V domains shown)
VH: EVQLVESGGGLVQPGGSLRLSCAASGFTVSSNYMSWVRQAPGKGLEWVSVIYSGGSTYYADSVKGRFTISRHNSKNTLYLQMNSLRAEDTAVYYCARGYVVWGQGTLVTVSS
VL: QPVLTQPPSVSKDLRQTATLTCTGNSNNVGNQGATWLQQHQGHPPKLLSYKNNNRPSGISERFSASRSGNTASLTITGLQPEDEADYYCSAWDSSLSAWVFGGGTQLTVLG
notes: fucosylated
- ADCC Activity Average EC50, Human B Cells [1]: 4.35 pM
- % Inhibition CXCL13 [3]: 106%
- EC50, stimulation of CXCL13-inhibited cAMP production [3]: 1400 pM
- EC50 [5]: 564 pM
- binding result [11]: no binding
- EC50 [12]: 926 pM
- binding result [13]: no binding (tested: 1 or 3 µg/ml (not on the sheet))

B3: 16D7 (reference antibody) (antibody, human IgG1, kappa, V domains shown)
VH: QVQLKESGPGLVAPSESLSITCTVSGFSLIDYGVNWIRQPPGKGLEWLGVIWGDGTTYYNPSLKSRLSISKDNSKSQVFLKVTSLTTDDTAMYYCARIVYWGQGTLVTVSA
VL: DIVMTQAAPSVAVTPGASVSISCRSSKSLLHSSGKTYLYWFLQRPGQSPQLLIYRLSSLASGVPDRFSGSGSGTAFTLRISRVEAEDVGVYYCMQHLEYPYTFGGGTKLEIKR
notes: fucosylated; also called S16D7
- Ca2+ flux IC50 [14]: 11400 pM
- ADCC Activity Average EC50, Human B Cells [1]: 2590 pM
- % Inhibition CXCL13 [3]: 102%
- EC50, stimulation of CXCL13-inhibited cAMP production [3]: 1100 pM
- binding result [11]: no binding
- EC50 [15]: 650 pM
- GMFI [16]: 150000 GMFI
- GMFI [17]: 958 GMFI
- GMFI [18]: 19900 GMFI
- GMFI [19]: 27000 GMFI
- GMFI [20]: 1260 GMFI
- GMFI [21]: 16900 GMFI
- GMFI [22]: 1340 GMFI
- GMFI [23]: 1380 GMFI
- binding result [13]: no binding (tested: 1 or 3 µg/ml (not on the sheet))
